Laboratory results published in US20230143582A1.

Molecular target: Wnt receptors on the cell surface of the HEK293 TCF9-SEAP reporter cell line
Assay: cell-based or functional assay

Q: How did the ED50 in the HEK293 TCF9-Secreted Alkaline Phosphatase (SEAP) Wnt-responsive reporter assay, lot DLGC02 turn out when “recombinant human Wnt3a protein (from UniProt P56704 19-352) (ligand)” was run?
A: 0.221 µg/mL

Q: What about the ED50 in the HEK293 TCF9-Secreted Alkaline Phosphatase (SEAP) Wnt-responsive reporter assay, lot RSK51 of the same substance?
A: 0.145 µg/mL

Q: And the ED50 in the HEK293 TCF9-Secreted Alkaline Phosphatase (SEAP) Wnt-responsive reporter assay, lot RSK69?
A: 0.191 µg/mL
